# Laboratory results taken from US10876098B2, “Polynucleotide, host cell and a method to recombinantly produce the protein encoded by said polynucleotide having peroxygenative activity” (CONSEJO SUPERIOR DE INVESTIGACIONES CIENTIFICAS (CSIC), priority 2015, dated 2020).
# B1: JaWa: PaDa-I variant with added mutations G241D and R257K, SEQ ID NO: 24 (protein)
# chain: MKYFPLFPTLVYAVGVVAFPDYASLAGLSQQELDAIIPTLEAREPGLPPGPLENSSAKLVNDEAHPWKPLRPGDIRGPCPGLNTLASHGYLPRNGVATPAQIINAVQEGFNFDNQAAIFATYAAHLVDGNLITDLLSIGRKTRLTGPDPPPPASVGGLNEHGTFEGDASMTRGDAFFGNNHDFNETLFEQLVDYSNRFGGGKYNLTVAGELRFKRIQDSIATNPNFSFVDFRFFTAYGETTFPANLFVDGRRDDGQLDMDAARSFFQFSRMPDDFFRAPSPRSDTGVEVVVQAHPMQPGKNVGKINSYTVDPTSSDFSTPCLMYEKFVNITVKSLYPNPTVQLRKALNTNLDFLFQGVAAGCTQVFPYGRD
# Legend:
# [1] = Isoelectric point by two-dimensional electrophoresis; assay type: physicochemical
# Method: The analyses were performed using an Autoflex III MALDI-TOF-TOF unit with smartbeam laser (Bruker Daltonics). The samples were evaluated in positive mode. The method was calibrated using BSA with standard, thereby covering a range of 15,000 to 70,000 Da. In order to determine the isoelectric point of the UPO variants, 8 μg of pure enzyme were subjected to two-dimensional electrophoresis. These experiments were carried out at the Proteomic and Genomic Service of the Biological Research Centre (CIB-CSIC, Spain).
# Optimum pH for ABTS = assay type: biochemical
# Optimum pH for DMP = assay type: biochemical
# [2] = Naphthalene transformation reaction analysed by HPLC-PDA; assay type: biochemical
# Method: A) Products formed after 15 minutes of reaction stopped with 20 μL of HCl 37% (PaDa-I, black bars; JaWa, grey bars). […] C) and D) Monitoring of the reaction for 270 minutes (without adding HCl) for the PaDa-I (C) and JaWa (D) mutants.
# The reactions were analysed by means of chromatography in reverse phase (HPLC). The equipment is composed by a tertiary pump (Varian-Agilent Technologies, USA) coupled to an autosampler (Merck Millipore, MA, USA); an ACE C18 PFP column was used for separation (pentafluorophenyl, 15 cm×4.6 cm) at 45° C. and detection was performed using a photodiode detector (PDA) (Varian-Agilent Technologies, USA). The mobile phase selected was 70% methanol and 30% ddH2O (in both cases with 0.1% of acetic acid) at a flow rate of 0.8 mL/min. The reaction was quantified at 268 nm (based on standard HPLCs). […] For long reaction times, the conditions used were those described earlier but without stopping the reaction with HCl. A sample of 10 μL was injected and analysed at different reaction times (from 1 to 270 minutes).
# [3] = Dual colorimetric HTS, DMP (peroxidase activity on microplate); assay type: biochemical; details: parental PaDa-I; S. cerevisiae microcultures
# Method: The mother plates were centrifuged (Eppendorf 5810R centrifuge, Germany) for 10 minutes at 3,500 RPM and 4° C. 20 μL of supernatant were transferred from these mother plates to two replica daughter plates with the help of a Freedom EVO liquid handling robot (Tecan, Switzerland).
# The plates were briefly agitated and initial absorbance was measured at 469 nm and 510 nm, respectively, using a plate reader for such purpose ([…]ax Plus 384, Molecular Devices, USA). […] The plates were kept at room temperature until they turned orange (DMP) or red (naphthol-Fast Red), at which time the absorbance was newly measured. The values were normalised against the parental of each plate. In order to rule out false positives, two re-screenings were carried out, in addition to a third re-screening wherein kinetic stability was determined (T50) (P. Molina-Espeja, et al. Appl. Environ. Microbiol. 2014. 80, 3496-3507).
# [4] = 15 minutes of reaction stopped with HCl
# [5] = 15 minutes of reaction stopped with HCl, 6.6 nM enzyme, 1 mM naphthalene, 1 mM H2O2
molecule,measurement,setting,value
B1,pI,[1],5.3
same,Optimum pH for ABTS,Optimum pH for ABTS,4.0
same,Optimum pH for DMP,Optimum pH for DMP,6.0
same,"1,4-naphthoquinone (oxidation product) detected",[2]; [4],"without detectable traces of 1,4-naphthoquinone"
same,"increase in the production of 1-naphthol, more than PaDa-I",[2]; [4],156%
same,"regioselectivity, 1-naphthol",[2]; [5],92%
same,"regioselectivity, 2-naphthol",[2]; [5],8%
same,time at which formation of the epoxide intermediary reached its maximum,[2]; 270 minute reaction at pH 7.0,~40 min
same,production of 1-naphthol,[2]; 270 minutes at pH 7.0 without stopping the reaction,0.32 mM
same,"total turnover numbers (TTN), 1-naphthol",[2]; calculated using the production value of 1-naphthol after 270 minutes,"~50,000 μmoles of product/μmoles of en"
same,regioselectivity against 1-naphthol,"[2]; long reaction times, 270 minutes at pH 7.0 without stopping the reaction",97%
same,peroxidase activity on microplate relative to parental,[3],reduced to half
